The target of the assay is monkey CD47 on LLC-MK2 cells (rhesus monkey) (UniProt H9ERV1). The assay can be described thus: flow cytometry, LLC-MK2 cells.

A word on the EC50 (read off the curve): it is the concentration giving half of the maximal effect.

The substance Hu5F9-G4 (antibody) displayed an EC50 (read off the curve) of 0.06 nM.

The values are drawn from patent publication US20250288643A1.
